Measurements reported in patent US20150152406A1 (NBE THERAPEUTICS, published 2015).

Target: T1, 6xHis-tagged, recombinant human CD30 (Sino Biological Inc., order #10777-H08H) (human, UniProt P28908 19-379)
T1 construct: Bought soluble reagent; It was detected with biotinylated anti-His-tag antibody and streptavidin-PE; also called CD30 antigen; CD30-6xHis
T1 sequence: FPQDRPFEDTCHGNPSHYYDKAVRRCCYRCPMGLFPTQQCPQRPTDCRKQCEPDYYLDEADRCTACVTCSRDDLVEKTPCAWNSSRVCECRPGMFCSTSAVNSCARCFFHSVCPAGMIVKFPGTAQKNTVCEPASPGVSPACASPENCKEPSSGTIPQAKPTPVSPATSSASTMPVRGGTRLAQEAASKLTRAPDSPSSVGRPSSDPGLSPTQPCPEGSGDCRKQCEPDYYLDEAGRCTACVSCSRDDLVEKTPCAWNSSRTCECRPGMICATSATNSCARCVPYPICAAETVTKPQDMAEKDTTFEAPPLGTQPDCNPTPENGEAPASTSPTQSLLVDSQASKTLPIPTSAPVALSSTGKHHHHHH
Test: flow cytometry; 63-12 cells displaying anti-CD19 IgG as background, stained with His-tagged CD30 / anti-His-biotin / strep-PE
Description: After the final FACS staining, the cells were again washed twice in ice-cold PBS, 2% FCS, and then resuspended in 1.0 ml PBS, 2% FCS, after which the cells were subjected to FACS analysis and cell sorting of Ig-kappaLC/CD30 positive cells (see FIG. 13).

B1: humanized anti-human CD19 antibody hBU12, membrane bound human IgG1 on the surface of 63-12 proB cells (antibody, V domains shown)
VH: QVQLQESGPGLVKPSQTLSLTCTVSGGSISTSGMGVGWIRQHPGKGLEWIGHIWWDDDKRYNPALKSRVTISVDTSKNQFSLKLSSVTAADTAVYYCARMELWSYYFDYWGQGTLVTVSS
VL: EIVLTQSPATLSLSPGERATLSCSASSSVSYMHWYQQKPGQAPRLLIYDTSKLASGIPARFSGSGSGTDFTLTISSLEPEDVAVYYCFQGSVYPFTFGQGTKLEIK
notes: also called anti-CD19 mAb hBU12; anti-CD19 mAb
  binding result: no binding (tested: 0.1 µg CD30 in 1 ml)
